Laboratory results from publication doi:10.1101/2023.12.20.572361.

Columns and labels:
[1] = homozygous birth rate from heterozygous crosses; settings: glycan lost; control: expected Mendelian ratio
[2] = EDL CSA from mass and fibre length; settings: glycan lost; control: WT mice
[3] = H&E and immunofluorescence of skeletal muscle; settings: glycan lost; control: WT mice
[4] = EDL isometric tetanic and specific force in vitro; settings: glycan lost; control: WT mice
[5] = EDL eccentric contraction protocol; settings: glycan lost; control: WT mice
[6] = forelimb grip strength, AAV rescue of DAG1 KO; settings: glycan lost; control: AAV WT DAG1

B1: dystroglycan (mDag1): T315A/T317A (protein)
parent chain: MSVDNWLLHPLWGQTFLLLLSVAVAQAHWPSEPSEAVRDWKNQLEASMHSVLSDFQEAVPTVVGIPDGTAVVGRSFRVSIPTDLIASSGEIIKVSAAGKEALPSWLHWDPHSHILEGLPLDTDKGVHYISVSAARLGANGSHVPQTSSVFSIEVYPEDHNEPQSVRAASSDPGEVVPSACAADEPVTVLTVILDADLTKMTPKQRIDLLNRMQSFSEVELHNMKLVPVVNNRLFDMSAFMAGPGNAKKVVENGALLSWKLGCSLNQNSVPDIRGVETPAREGAMSAQLGYPVVGWHIANKKPTLPKRLRRQIHATPTPVTAIGPPTTAIQEPPSRIVPTPTSPAIAPPTETMAPPVRDPVPGKPTVTIRTRGAIIQTPTLGPIQPTRVSEAGTTVPGQIRPTLTIPGYVEPTAVITPPTTTTKKPRVSTPKPATPSTDSSTTTTRRPTKKPRTPRPVPRVTTKAPITRLETASPPTRIRTTTSGVPRGGEPNQRPELKNHIDRVDAWVGTYFEVKIPSDTFYDNEDTTTDKLKLTLKLREQQLVGEKSWVQFNSNSQLMYGLPDSSHVGKHEYFMHATDKGGLSAVDAFEIHVHKRPQGDKAPARFKARLAGDPAPVVNDIHKKIALVKKLAFAFGDRNCSSITLQNITRGSIVVEWTNNTLPLEPCPKEQIIGLSRRIADENGKPRPAFSNALEPDFKALSIAVTGSGSCRHLQFIPVAPPSPGSSAAPATEVPDRDPEKSSEDDVYLHTVIPAVVVAAILLIAGIIAMICYRKKRKGKLTLEDQATFIKKGVPIIFADELDDSKPPPSSSMPLILQEEKAPLPPPEYPNQSMPETTPLNQDTVGEYTPLRDEDPNAPPYQPPPPFTAPMEGKGSRPKNMTPYRSPPPYVPP
other: embryonic viability, other: homozygous birth rate [1]: 10%
other: muscle cross-sectional area [2]: changes
other: skeletal muscle histopathology [3]: no change
other: muscle contractile force [4]: no change
other: susceptibility to contraction-induced injury [5]: no change

B2: dystroglycan (mDag1): T377A/T379A (protein)
parent chain: MSVDNWLLHPLWGQTFLLLLSVAVAQAHWPSEPSEAVRDWKNQLEASMHSVLSDFQEAVPTVVGIPDGTAVVGRSFRVSIPTDLIASSGEIIKVSAAGKEALPSWLHWDPHSHILEGLPLDTDKGVHYISVSAARLGANGSHVPQTSSVFSIEVYPEDHNEPQSVRAASSDPGEVVPSACAADEPVTVLTVILDADLTKMTPKQRIDLLNRMQSFSEVELHNMKLVPVVNNRLFDMSAFMAGPGNAKKVVENGALLSWKLGCSLNQNSVPDIRGVETPAREGAMSAQLGYPVVGWHIANKKPTLPKRLRRQIHATPTPVTAIGPPTTAIQEPPSRIVPTPTSPAIAPPTETMAPPVRDPVPGKPTVTIRTRGAIIQTPTLGPIQPTRVSEAGTTVPGQIRPTLTIPGYVEPTAVITPPTTTTKKPRVSTPKPATPSTDSSTTTTRRPTKKPRTPRPVPRVTTKAPITRLETASPPTRIRTTTSGVPRGGEPNQRPELKNHIDRVDAWVGTYFEVKIPSDTFYDNEDTTTDKLKLTLKLREQQLVGEKSWVQFNSNSQLMYGLPDSSHVGKHEYFMHATDKGGLSAVDAFEIHVHKRPQGDKAPARFKARLAGDPAPVVNDIHKKIALVKKLAFAFGDRNCSSITLQNITRGSIVVEWTNNTLPLEPCPKEQIIGLSRRIADENGKPRPAFSNALEPDFKALSIAVTGSGSCRHLQFIPVAPPSPGSSAAPATEVPDRDPEKSSEDDVYLHTVIPAVVVAAILLIAGIIAMICYRKKRKGKLTLEDQATFIKKGVPIIFADELDDSKPPPSSSMPLILQEEKAPLPPPEYPNQSMPETTPLNQDTVGEYTPLRDEDPNAPPYQPPPPFTAPMEGKGSRPKNMTPYRSPPPYVPP
other: embryonic viability, other: homozygous birth rate [1]: 22%
other: muscle cross-sectional area [2]: no change
other: skeletal muscle histopathology [3]: no change
other: muscle contractile force [4]: no change
other: susceptibility to contraction-induced injury [5]: no change

B3: dystroglycan (mDag1): AAV 4X mutant DG (protein)
parent chain: MSVDNWLLHPLWGQTFLLLLSVAVAQAHWPSEPSEAVRDWKNQLEASMHSVLSDFQEAVPTVVGIPDGTAVVGRSFRVSIPTDLIASSGEIIKVSAAGKEALPSWLHWDPHSHILEGLPLDTDKGVHYISVSAARLGANGSHVPQTSSVFSIEVYPEDHNEPQSVRAASSDPGEVVPSACAADEPVTVLTVILDADLTKMTPKQRIDLLNRMQSFSEVELHNMKLVPVVNNRLFDMSAFMAGPGNAKKVVENGALLSWKLGCSLNQNSVPDIRGVETPAREGAMSAQLGYPVVGWHIANKKPTLPKRLRRQIHATPTPVTAIGPPTTAIQEPPSRIVPTPTSPAIAPPTETMAPPVRDPVPGKPTVTIRTRGAIIQTPTLGPIQPTRVSEAGTTVPGQIRPTLTIPGYVEPTAVITPPTTTTKKPRVSTPKPATPSTDSSTTTTRRPTKKPRTPRPVPRVTTKAPITRLETASPPTRIRTTTSGVPRGGEPNQRPELKNHIDRVDAWVGTYFEVKIPSDTFYDNEDTTTDKLKLTLKLREQQLVGEKSWVQFNSNSQLMYGLPDSSHVGKHEYFMHATDKGGLSAVDAFEIHVHKRPQGDKAPARFKARLAGDPAPVVNDIHKKIALVKKLAFAFGDRNCSSITLQNITRGSIVVEWTNNTLPLEPCPKEQIIGLSRRIADENGKPRPAFSNALEPDFKALSIAVTGSGSCRHLQFIPVAPPSPGSSAAPATEVPDRDPEKSSEDDVYLHTVIPAVVVAAILLIAGIIAMICYRKKRKGKLTLEDQATFIKKGVPIIFADELDDSKPPPSSSMPLILQEEKAPLPPPEYPNQSMPETTPLNQDTVGEYTPLRDEDPNAPPYQPPPPFTAPMEGKGSRPKNMTPYRSPPPYVPP
other: rescue of grip strength [6]: abolishes

B4: dystroglycan (mDag1): AAV T315A/T317A DAG1 (protein)
parent chain: MSVDNWLLHPLWGQTFLLLLSVAVAQAHWPSEPSEAVRDWKNQLEASMHSVLSDFQEAVPTVVGIPDGTAVVGRSFRVSIPTDLIASSGEIIKVSAAGKEALPSWLHWDPHSHILEGLPLDTDKGVHYISVSAARLGANGSHVPQTSSVFSIEVYPEDHNEPQSVRAASSDPGEVVPSACAADEPVTVLTVILDADLTKMTPKQRIDLLNRMQSFSEVELHNMKLVPVVNNRLFDMSAFMAGPGNAKKVVENGALLSWKLGCSLNQNSVPDIRGVETPAREGAMSAQLGYPVVGWHIANKKPTLPKRLRRQIHATPTPVTAIGPPTTAIQEPPSRIVPTPTSPAIAPPTETMAPPVRDPVPGKPTVTIRTRGAIIQTPTLGPIQPTRVSEAGTTVPGQIRPTLTIPGYVEPTAVITPPTTTTKKPRVSTPKPATPSTDSSTTTTRRPTKKPRTPRPVPRVTTKAPITRLETASPPTRIRTTTSGVPRGGEPNQRPELKNHIDRVDAWVGTYFEVKIPSDTFYDNEDTTTDKLKLTLKLREQQLVGEKSWVQFNSNSQLMYGLPDSSHVGKHEYFMHATDKGGLSAVDAFEIHVHKRPQGDKAPARFKARLAGDPAPVVNDIHKKIALVKKLAFAFGDRNCSSITLQNITRGSIVVEWTNNTLPLEPCPKEQIIGLSRRIADENGKPRPAFSNALEPDFKALSIAVTGSGSCRHLQFIPVAPPSPGSSAAPATEVPDRDPEKSSEDDVYLHTVIPAVVVAAILLIAGIIAMICYRKKRKGKLTLEDQATFIKKGVPIIFADELDDSKPPPSSSMPLILQEEKAPLPPPEYPNQSMPETTPLNQDTVGEYTPLRDEDPNAPPYQPPPPFTAPMEGKGSRPKNMTPYRSPPPYVPP
other: rescue of grip strength [6]: no change

B5: dystroglycan (mDag1): 4X mut. (protein)
parent chain: MSVDNWLLHPLWGQTFLLLLSVAVAQAHWPSEPSEAVRDWKNQLEASMHSVLSDFQEAVPTVVGIPDGTAVVGRSFRVSIPTDLIASSGEIIKVSAAGKEALPSWLHWDPHSHILEGLPLDTDKGVHYISVSAARLGANGSHVPQTSSVFSIEVYPEDHNEPQSVRAASSDPGEVVPSACAADEPVTVLTVILDADLTKMTPKQRIDLLNRMQSFSEVELHNMKLVPVVNNRLFDMSAFMAGPGNAKKVVENGALLSWKLGCSLNQNSVPDIRGVETPAREGAMSAQLGYPVVGWHIANKKPTLPKRLRRQIHATPTPVTAIGPPTTAIQEPPSRIVPTPTSPAIAPPTETMAPPVRDPVPGKPTVTIRTRGAIIQTPTLGPIQPTRVSEAGTTVPGQIRPTLTIPGYVEPTAVITPPTTTTKKPRVSTPKPATPSTDSSTTTTRRPTKKPRTPRPVPRVTTKAPITRLETASPPTRIRTTTSGVPRGGEPNQRPELKNHIDRVDAWVGTYFEVKIPSDTFYDNEDTTTDKLKLTLKLREQQLVGEKSWVQFNSNSQLMYGLPDSSHVGKHEYFMHATDKGGLSAVDAFEIHVHKRPQGDKAPARFKARLAGDPAPVVNDIHKKIALVKKLAFAFGDRNCSSITLQNITRGSIVVEWTNNTLPLEPCPKEQIIGLSRRIADENGKPRPAFSNALEPDFKALSIAVTGSGSCRHLQFIPVAPPSPGSSAAPATEVPDRDPEKSSEDDVYLHTVIPAVVVAAILLIAGIIAMICYRKKRKGKLTLEDQATFIKKGVPIIFADELDDSKPPPSSSMPLILQEEKAPLPPPEYPNQSMPETTPLNQDTVGEYTPLRDEDPNAPPYQPPPPFTAPMEGKGSRPKNMTPYRSPPPYVPP
other: embryonic viability, other: homozygous birth rate [1]: abolishes

B6: dystroglycan (mDag1): 4X mut. (floxed WT allele removed by Pax7-Cre or AAV-CMV-Cre) (protein)
parent chain: MSVDNWLLHPLWGQTFLLLLSVAVAQAHWPSEPSEAVRDWKNQLEASMHSVLSDFQEAVPTVVGIPDGTAVVGRSFRVSIPTDLIASSGEIIKVSAAGKEALPSWLHWDPHSHILEGLPLDTDKGVHYISVSAARLGANGSHVPQTSSVFSIEVYPEDHNEPQSVRAASSDPGEVVPSACAADEPVTVLTVILDADLTKMTPKQRIDLLNRMQSFSEVELHNMKLVPVVNNRLFDMSAFMAGPGNAKKVVENGALLSWKLGCSLNQNSVPDIRGVETPAREGAMSAQLGYPVVGWHIANKKPTLPKRLRRQIHATPTPVTAIGPPTTAIQEPPSRIVPTPTSPAIAPPTETMAPPVRDPVPGKPTVTIRTRGAIIQTPTLGPIQPTRVSEAGTTVPGQIRPTLTIPGYVEPTAVITPPTTTTKKPRVSTPKPATPSTDSSTTTTRRPTKKPRTPRPVPRVTTKAPITRLETASPPTRIRTTTSGVPRGGEPNQRPELKNHIDRVDAWVGTYFEVKIPSDTFYDNEDTTTDKLKLTLKLREQQLVGEKSWVQFNSNSQLMYGLPDSSHVGKHEYFMHATDKGGLSAVDAFEIHVHKRPQGDKAPARFKARLAGDPAPVVNDIHKKIALVKKLAFAFGDRNCSSITLQNITRGSIVVEWTNNTLPLEPCPKEQIIGLSRRIADENGKPRPAFSNALEPDFKALSIAVTGSGSCRHLQFIPVAPPSPGSSAAPATEVPDRDPEKSSEDDVYLHTVIPAVVVAAILLIAGIIAMICYRKKRKGKLTLEDQATFIKKGVPIIFADELDDSKPPPSSSMPLILQEEKAPLPPPEYPNQSMPETTPLNQDTVGEYTPLRDEDPNAPPYQPPPPFTAPMEGKGSRPKNMTPYRSPPPYVPP
other: skeletal muscle histopathology [3]: increases
